The subject of data set [1] is human peripheral blood mononuclear cells (PMBC). Briefly: Alamar Blue cell viability of human PBMC. Format: cell-based. As for the experimental part:
For these in vitro studies, generally either human or mouse leukocyte cells or cell lines were cultured in vitro in the presence or absence of insulin preservatives or fibrils at various concentrations. at selected times cell viability and or cell activation has (cytokine expression) was determined. The results of these studies are presented below the general work flow for these studies are located in FIG. 61. […] Insulin diluent contains the formulation components of commercial insulin solutions but without the insulin protein itself. For these studies we utilized the work flow described in FIG. 61. […] At physiologic concentrations, both insulin formulation and insulin fibrils are toxic for human cells in vitro. […] The Protocol was: Hu-PBMC+insulin (72 hr)=>Assay Interleukin 8 (IL-8). […] The Protocol was Hu-PBMC+insulin (7 days)=>Assay Interferon gamma. […] The in vivo activation of these cells would cause inflammation and tissue destruction resulting in loss of effective CSII function.
On the technique in general: Alamar Blue is a resazurin reagent that responds to reducing activity.

The subject of data set [2] is human peripheral blood mononuclear cells (PBMC). Briefly: In vitro morphology of human PBMC after exposure. Format: cell-based. The protocol:
FIG. 6. Toxicity of insulin and fibrils in vitro: Preliminary in vitro morphology of human peripheral blood mononuclear cells (PBMC) after exposure to control media, high (1.0 mg/mL), and low (0.1 mg/mL) concentrations of insulin or insulin fibrils (i.e. insulin degradation byproducts) FIG. 6). Healthy control cells [Left column] show a rounded morphology.

For the next data set, the system named is human PBMCs. Briefly: Pro-inflammatory cytokine expression by human PBMC in vitro. Format: cell-based. The protocol: For these in vitro studies, generally either human or mouse leukocyte cells or cell lines were cultured in vitro in the presence or absence of insulin preservatives or fibrils at various concentrations. at selected times cell viability and or cell activation has (cytokine expression) was determined. The results of these studies are presented below the general work flow for these studies are located in FIG. 61.
FIG. 7. Our in vitro studies Insulin and excipients induced expression of pro-inflammatory cytokines in PBMC in vitro. […] Similar data has been obtained with human cell lines (THP-1) and mouse macrophages (MQ). This supports our belief that I/E can induce inflammation in vivo, and that chronic infusion of IFP can cause chronic inflammation and fibrosis.
For these studies we utilized the work flow described in FIG. 61. […] At physiologic concentrations, both insulin formulation and insulin fibrils are toxic for human cells in vitro. […] The Protocol was: Hu-PBMC+insulin (72 hr)=>Assay Interleukin 8 (IL-8). […] The Protocol was Hu-PBMC+insulin (7 days)=>Assay Interferon gamma. […] The in vivo activation of these cells would cause inflammation and tissue destruction resulting in loss of effective CSII function.

A further data set deals with human neutrophils. Briefly: Survival of human PMNs in serial dilutions. Format: cell-based. The following applies: 3 days, 1:48 dilution. The text has this:
As the concentration increased, the number of cells surviving decreased for both insulin and insulin diluent.

A further data set has as its target T1, Elastase (Homo sapiens, UniProt P08246).
T1 sequence (P08246 30-267): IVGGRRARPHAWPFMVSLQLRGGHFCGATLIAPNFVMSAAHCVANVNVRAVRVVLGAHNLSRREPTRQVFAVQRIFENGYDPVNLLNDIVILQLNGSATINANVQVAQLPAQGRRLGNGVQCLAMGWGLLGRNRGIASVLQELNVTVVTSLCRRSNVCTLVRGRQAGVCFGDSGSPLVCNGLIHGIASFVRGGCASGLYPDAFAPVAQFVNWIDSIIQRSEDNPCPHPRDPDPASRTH
Briefly: Insulin degradation by elastase +/- anti-proteases (PAGE). Format: biochemical. The protocol:
(§1) To characterize the ability of purified proteases or leukocyte extracts to degrade FITC-insulin in vitro we analyzed the impact of cell culture supernatants and cell lysates on insulin degradation using 10-20% SDS-PAGE gels. This was performed +/−anti-protease cocktails to characterize proteases responsible for insulin degradation. The functional activity of individual leukocyte proteases was analyzed using protease PAGE gels +/−protease inhibitors. […] (FIG. 13a, 13b, 13c and FIG. 14).
(§2) In FIG. 53, I=insulin, T=Trypsin, E=Elastase, IDE-Insulin Degrading Enzyme, PMN=Triton X100 extract of human PMN, mwn=molecular weight marker.
(§3) In this example, we tested the ability of various anti-proteases to inhibit insulin degradation by leukocyte extracts and proteases.

The target of data set [3] is Insulin degrading enzyme (IDE) (Homo sapiens, UniProt P14735). As to the kind of experiment: Insulin degradation by insulin degrading enzyme +/- anti-proteases (PAGE). Format: biochemical. As for the experimental part: as §1, §2, §3
For another data set, the system named is mouse mast cells. Briefly: Mast cell morphology/toxicity in vitro. Format: cell-based. Conditions: physiologic concentrations. From the text: FIGS. 46-47 show the impact of insulin on mast cell morphology. At physiologic concentrations, both insulin formulations fibrils (not shown) are toxic to mouse mast cells in vitro.
The next data set has as its system human mast cells. As to the kind of experiment: Mast cell viability (alamar Assay). Format: cell-based. The text has this:
(§4) FIGS. 48-49 show the impact of insulin on mast cell viability and degranulation. Mast cells (MC) are key skin “sentinel” cells and are generally the first tissue cell population activated by tissue trauma triggering acute inflammatory or allergic reactions and serve a central role in chronic inflammation and wound healing. Recent results from our laboratory indicate that skin mast cells affect glucose sensor induced tissue reactions and CGM function (13).

The next data set has as its system HMC-1 human mast cells. As to the kind of experiment: Mast cell degranulation/activation. Format: cell-based. Conditions: in vitro.
Source text: as §4

The subject of a further data set is infusion site tissue. As to the kind of experiment: Tissue toxicity of infusion (open loop CSII mouse model). The following applies: open loop delivery system.
The test system of a further data set is air pouch. As to the kind of experiment: Leukocyte influx into murine air pouch model (lavage cell count). The following applies: injection or infusion into air pouch.
Data set [4] relates to leukocyte proteases including neutrophil elastase, trypsin, and insulin-degrading enzyme. As to the kind of experiment: Insulin degradation by leukocyte proteases (SDS-PAGE) +/- inhibitors. Format: biochemical. The following applies: in vitro. The protocol:
To characterize the ability of purified proteases or leukocyte extracts to degrade FITC-insulin in vitro we analyzed the impact of cell culture supernatants and cell lysates on insulin degradation using 10-20% SDS-PAGE gels. This was performed +/−anti-protease cocktails to characterize proteases responsible for insulin degradation. The functional activity of individual leukocyte proteases was analyzed using protease PAGE gels +/−protease inhibitors. This study clarifies the role of leukocytes in insulin therapy. (FIG. 13a, 13b, 13c and FIG. 14).

A further data set relates to Trypsin. As to the kind of experiment: Insulin degradation by trypsin +/- anti-proteases (PAGE). Format: biochemical. As for the experimental part:
as §1, §2, §3

Data set [5] relates to Triton X100 extract of human PMN. As to the kind of experiment: Insulin degradation by PMN extracts +/- inhibitors (PAGE). Format: biochemical.
Source text: as §2, §3

Four substances from patent publication US12109252B2, “Systems, methods and products for minimizing tissue reactions and tissue injury at an infusion site” (Cell and Molecular Tissue Engineering, LLC, priority 2016, dated 2024) can be followed below.

Entries after “also recorded” stand apart in the source; their conditions may differ.

Description for air pouch: For this model, sterile air was injected subcutaneously into mouse skin creating a sustained compartment (pouch) for injection of test agents (FIG. 2). At various times post-air/post-agent injection, the “air pouch” can be lavaged, and the cell and fluid content removed and characterized using standard technology (FIG. 2). After lavage, tissue reactions in the air pouch walls can also be determined using standard histopathology/immunohistochemistry (FIG. 2).
We adapted this model for the evaluation of tissue responses to infusion of insulin, excipients, factors, drugs and control solutions (e.g. saline). […] Initially, CD-1 mice received air injections (3 mL) into the dorsal site of the low back to induce the air pouch in each animal. On the following day individual mice received infusions of either saline or insulin diluent. […] Exudate was then centrifuged and a TC10 automated cell counter determined the total viable leukocyte cells. The potential inflammatory effect of insulin diluent was evaluated through the analysis on the mouse leukocyte count and exudate concentrations in the inflamed air pouch cavity.
Air was injected subcutaneously into the mouse skin creating a sustained compartment (pouch) for injection of diluent or saline (control). […] The resulting fluid was characterized for cell number (auto-hemo-cytometer), and cell type using fluorescence activated Cell sorting (FACS).
Source text for infusion site tissue: Combined CSII and CGM mouse model (A B, C). Non-obese diabetic (NOD) mouse implanted with Abbott Navigator glucose sensor (GS) and a short polymer infusion set for CSII. The set and sensor were placed sufficiently far apart to avoid interference. Open Loop CGM and CSII insulin infusion system cage and assembly, that allows animal ambulation and mobility during simultaneous continuous glucose sensing and insulin infusion.
Tissue Toxicity of Insulin in vivo: Infusion: The sectioned polymer catheter wall is visible and marked with a black asterisk (*) in all tissues. […] Infusion was accomplished using the open loop delivery system described in FIG. 5.

Take “insulin: commercial insulin formulation: complete insulin (insulin plus preservatives)”: in [1] (3 days of exposure to increasing concentrations), the “cell viability (Alamar Blue assay)” value was “decreasing cell viability”. In addition, the “toxicity for human cells in vitro” value in data set [1] (physiologic concentrations) is “toxic”. Further, the PBMC morphology entry is listed as “tight contracted morphology indicative of cell death/dying” in data set [2] (high (1.0 mg/mL) concentration) and “spread, expanded morphology indicative of cell injury/activation” in [2] (low (0.1 mg/mL) concentration). The “pro-inflammatory activation of Hu-PBMC” value in the data set with human PBMCs (IL-8 72 hr, Interferon gamma 7 days) is reported as “cause pro-inflammatory activation”. Further, the “expression of pro-inflammatory cytokines including IL-6, IL-8 and TNFa” value in the data set on human PBMCs (PBMC in vitro) was “induce expression of pro-inflammatory cytokines”. Further, the “number of PMN's surviving vs buffer alone” value with human neutrophils was “significantly fewer cells surviving”. Moreover, in the data set with Elastase, the “degradation of insulin by elastase” value is on record as “cleaves insulin at many sites”. Further, in data set [3], the “degradation of insulin by insulin degrading enzyme” value is recorded as “cleaves insulin into several smaller peptides”. Further, the “toxicity to mouse mast cells” value in the data set with mouse mast cells is listed as “toxic”. For the same substance, in the data set with human mast cells (increasing concentration), the “mast cell death (alamar Assay)” value is listed as “increasing cell death”. Besides, the “toxicity to human mast cells” value in the data set with human mast cells (physiologic concentrations) is “toxic”. The “mast cell degranulation / activation” value in the data set with HMC-1 human mast cells is “activate MCs”; with HMC-1 human mast cells (listed as insulin formulations), “cause mast cell degrandulation”. Besides, in the data set on infusion site tissue, the “tissue reaction at infusion site surrounding catheter” value was “extensive cell damage, inflammation and cellular infiltrate”. Moreover, in the data set with air pouch, the “inflammation / tissue reactions in air pouch vs saline” value is reported as “cause tissue reactions”.
For the substance “AAT: alpha-1-antitrypsin, natural protease inhibitor”, the “reduction of activity of insulin-degrading leukocyte proteases” value in [4] is “reduced”. Moreover, the “blocking of insulin degradation by trypsin” value with Trypsin was “blocked”. In [5], the “inhibition of insulin degradation by PMN extracts” value was “completely inhibits; also recorded: blocked”.
Regarding aprotinin, the “reduction of activity of insulin-degrading leukocyte proteases” value in [4] was “reduced”. The “blocking of insulin degradation by elastase” value at Elastase was “blocked”. Also, the “blocking of insulin degradation by trypsin” value in the data set with Trypsin was “blocked”. Moreover, in [5], the “inhibition of insulin degradation by PMN extracts” value is “blocked”.
On to “FITC-insulin: fluorescent insulin (FITC-insulin; Sigma, St. Louis, MO)”, for which the “degradation of insulin by elastase” value in the data set with Elastase is listed as “degraded”.
